According to patent US20200055939A1 (Genentech, published 2020):
Positions count from the first letter of the chain named.

How the values were obtained:
Experiment in all cases: SPR, Fab over captured MICA*008.mIgG2a Ala variant; KD relative to wild type
V244A = target: T1, V244A
T1 construct: % monomer 97.6; also called MICA*008.mIgG2a V244A
T1 chain: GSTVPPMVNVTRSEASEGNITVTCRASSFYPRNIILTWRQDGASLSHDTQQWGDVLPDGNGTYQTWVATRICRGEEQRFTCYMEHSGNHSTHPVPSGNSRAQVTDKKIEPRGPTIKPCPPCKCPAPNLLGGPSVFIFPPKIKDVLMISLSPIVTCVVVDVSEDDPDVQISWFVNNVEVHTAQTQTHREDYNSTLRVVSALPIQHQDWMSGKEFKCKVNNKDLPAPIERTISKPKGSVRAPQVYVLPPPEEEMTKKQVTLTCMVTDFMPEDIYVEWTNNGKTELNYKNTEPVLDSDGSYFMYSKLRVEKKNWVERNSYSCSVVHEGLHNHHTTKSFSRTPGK

E276A = target: T2, E276A
T2 construct: % monomer 86.14; also called MICA*008.mIgG2a E276A
T2 chain: T1 chain with A43V, E75A

R240A = target: T3, R240A
T3 construct: % monomer 93.8; also called MICA*008.mIgG2a R240A
T3 chain: T1 chain with R39A, A43V

Y283A = target: T4, Y283A
T4 construct: % monomer 92.7; also called MICA*008.mIgG2a Y283A
T4 chain: T1 chain with A43V, Y82A

T292A = target: T5, T292A
T5 construct: % monomer 80.56; also called MICA*008.mIgG2a T292A
T5 chain: T1 chain with A43V, T91A

G275A = target: T6, G275A
T6 construct: % monomer 98.9; also called MICA*008.mIgG2a G275A
T6 chain: T1 chain with A43V, G74A

B1: 2E5.2.3 Fab (Fab, V domains shown)
VH: QGQMQQSGAELVKPGASVKLSCKTSGFTFSDNYISWLKQKPGQSLEWIAWIYAGTGGTSYNQKFTAKAQLTVDTSSSTAYMQFSSLTTEDSAIYYCARHDYYGTSGAWFAYWGQGTLVTVSA
VL: DVLMTQTPLSLPVSLGDQASLSCRSSQNIVHINGNTYLEWYLQKPGQSPKLLIYKVSNRFSGVPDRFSGSGSGTDFTLKISRVEAEDLGVYYCFQGSHVPWTFGGGTKVEIK
B1 gave a fold-decrease in affinity (V244A) of 1, a fold-decrease in affinity (E276A) of 1.2 and a fold-decrease in affinity (R240A) of 1. The fold-decrease in affinity (Y283A) was 0.2, the fold-decrease in affinity (T292A) was 1.3 and the fold-decrease in affinity (G275A) was 1.

B2: 1D5 Fab (Fab, V domains shown)
VH: EIQLQQSGPELVKPGASVKVSCKASGYAFTSQNIYWVKQSHGKSLEWIGYIEPYNVVPMYNPKFKGKATLTVDKSSSSAYIHLNSLTSEDSAIYYCARSGSSNFDYWGQGTTLTVSS
VL: EIILTQSPTTMAASPGEKITITCSASSSISSHYLHWYQQKSGFSPKLLIYRTSNLASGVPARFSGSGSGTSYSLTIGTMEAEDVATYYCQQGSSLPLTFGAGTKVEIK
notes: Expressed in E. coli as chimera of murine variable and human constant domains; not shown: human IgG1 CH1 constant domain; human kappa CL constant domain
With B2 the fold-decrease in affinity (E276A) was 22.

B3: 6F8.7 Fab (Fab, V domains shown)
VH: DVQLQGSGPGLVKPSQSLSLTCSVTGYSITNDYYWNWIRQFPGNKLEWMGFISFGGSNNYNPSLKNRISITRDTSKNQFFLKLSSVTTEDTATYYCARYDGRGAWFAYWAQGTLVTVSA
VL: DIQMTQSPASLSASVGETVTITCRASGNIHNYLAWYQQKQGKSPQLLVYDAITLADGVPSRFSGSGSGTQYSLKINSLQPEDFGNYYCQHFWSFPLTFGAGTKVEIK
In the case of B3, the fold-decrease in affinity (E276A) is reported as 4.3, the fold-decrease in affinity (R240A) is reported as 4.5 and the fold-decrease in affinity (Y283A) is reported as 1.7. It also gave a fold-decrease in affinity (T292A) of 1.7 and a fold-decrease in affinity (G275A) of 4.6.

B4: 7D4.6 Fab (Fab, V domains shown)
VH: DVQLQESGPGLVKPSQSLSLTCTVTGYSITSDYAWNWIRQFPRNKLEWMGYINYSGTTNYNPSLKSRISITRDTSKNQFFLQLISVTTEDTATYYCSYYRYDGAWFPYWGQGTLVTVSA
VL: B3 VL with D50N, T53M, G64A, N85S
Binder B4 has a fold-decrease in affinity (E276A) of 0.7 and a fold-decrease in affinity (T292A) of 2.1.
